Measured values taken from patent US20220348620A1.

Legend:
Assay in all cases: anti-Flag pull-down from MFF1-transfected PC3 cells, LC-MS/MS; intensity over control, mean of two experiments
[1] = target: COPA (human) (UniProt P53621)
[2] = target: COPB1 (human) (UniProt P53618)
[3] = target: DDB1 (human) (UniProt Q16531)
[4] = target: DDOST (human) (UniProt P39656)
[5] = target: HSPA8 (human) (UniProt P11142)
[6] = target: OPA1 (human) (UniProt O60313)
[7] = target: RPN1 (human) (UniProt P04843)
RPN1 (human), sequence (P04843 24-607 limits assumed): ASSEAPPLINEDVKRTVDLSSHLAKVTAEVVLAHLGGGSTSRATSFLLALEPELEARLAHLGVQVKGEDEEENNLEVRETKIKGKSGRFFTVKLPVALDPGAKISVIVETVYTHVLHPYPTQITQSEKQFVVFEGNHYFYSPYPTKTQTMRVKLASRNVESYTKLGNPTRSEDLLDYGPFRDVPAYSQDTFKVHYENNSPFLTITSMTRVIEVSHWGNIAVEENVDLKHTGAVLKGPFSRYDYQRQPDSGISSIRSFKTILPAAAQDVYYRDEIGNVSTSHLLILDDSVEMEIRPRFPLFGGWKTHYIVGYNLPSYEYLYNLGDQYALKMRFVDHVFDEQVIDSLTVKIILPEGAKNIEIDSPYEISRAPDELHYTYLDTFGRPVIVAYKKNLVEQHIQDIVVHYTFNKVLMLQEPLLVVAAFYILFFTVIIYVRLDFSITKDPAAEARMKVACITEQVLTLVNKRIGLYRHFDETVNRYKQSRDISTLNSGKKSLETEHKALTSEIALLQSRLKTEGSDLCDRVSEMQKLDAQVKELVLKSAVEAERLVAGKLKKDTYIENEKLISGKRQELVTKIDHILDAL

[8] = target: RPN2 (human) (UniProt P04844)
[9] = target: SLC25A13 (human) (UniProt Q9UJS0)
SLC25A13 (human), sequence (Q9UJS0 2-675 limits assumed): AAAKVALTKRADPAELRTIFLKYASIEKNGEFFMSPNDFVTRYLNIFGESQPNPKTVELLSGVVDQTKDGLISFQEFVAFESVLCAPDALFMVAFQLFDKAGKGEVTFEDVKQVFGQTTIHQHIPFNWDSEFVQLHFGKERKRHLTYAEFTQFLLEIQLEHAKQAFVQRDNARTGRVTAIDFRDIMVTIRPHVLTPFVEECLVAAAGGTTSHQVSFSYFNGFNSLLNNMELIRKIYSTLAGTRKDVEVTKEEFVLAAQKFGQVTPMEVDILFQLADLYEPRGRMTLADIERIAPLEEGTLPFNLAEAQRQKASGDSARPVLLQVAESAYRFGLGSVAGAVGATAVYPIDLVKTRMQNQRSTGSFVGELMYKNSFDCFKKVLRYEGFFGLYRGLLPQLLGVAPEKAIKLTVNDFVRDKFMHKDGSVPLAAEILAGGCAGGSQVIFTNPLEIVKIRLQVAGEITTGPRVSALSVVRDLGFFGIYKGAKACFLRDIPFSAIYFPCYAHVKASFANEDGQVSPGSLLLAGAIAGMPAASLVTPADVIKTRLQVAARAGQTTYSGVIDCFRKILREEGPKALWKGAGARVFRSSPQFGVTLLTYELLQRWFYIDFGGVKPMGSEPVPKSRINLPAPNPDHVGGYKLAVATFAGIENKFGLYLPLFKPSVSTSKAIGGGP

[10] = target: TFRC (human) (UniProt P02786)

OPA1 (human), sequence (O60313 88-960 limits assumed): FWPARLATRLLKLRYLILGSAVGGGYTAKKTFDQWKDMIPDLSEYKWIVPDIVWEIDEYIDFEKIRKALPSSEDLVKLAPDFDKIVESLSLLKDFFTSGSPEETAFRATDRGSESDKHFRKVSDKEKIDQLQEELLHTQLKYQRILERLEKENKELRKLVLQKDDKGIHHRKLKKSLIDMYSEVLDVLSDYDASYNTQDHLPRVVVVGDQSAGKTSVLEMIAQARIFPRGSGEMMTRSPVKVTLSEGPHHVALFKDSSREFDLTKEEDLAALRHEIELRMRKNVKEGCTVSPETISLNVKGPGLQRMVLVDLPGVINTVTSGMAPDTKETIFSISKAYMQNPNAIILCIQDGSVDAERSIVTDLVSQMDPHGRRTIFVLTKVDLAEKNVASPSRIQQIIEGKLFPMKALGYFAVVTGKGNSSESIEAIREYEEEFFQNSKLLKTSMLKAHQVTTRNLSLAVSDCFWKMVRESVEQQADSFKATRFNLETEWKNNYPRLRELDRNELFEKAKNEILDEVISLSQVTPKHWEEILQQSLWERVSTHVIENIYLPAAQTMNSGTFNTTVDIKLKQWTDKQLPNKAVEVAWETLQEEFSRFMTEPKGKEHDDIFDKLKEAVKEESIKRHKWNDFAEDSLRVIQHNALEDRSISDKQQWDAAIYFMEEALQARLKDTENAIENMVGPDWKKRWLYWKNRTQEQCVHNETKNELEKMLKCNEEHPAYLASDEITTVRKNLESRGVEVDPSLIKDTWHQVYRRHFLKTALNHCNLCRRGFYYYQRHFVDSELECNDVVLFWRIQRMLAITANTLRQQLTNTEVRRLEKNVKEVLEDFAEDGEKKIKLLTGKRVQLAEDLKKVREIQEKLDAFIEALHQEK
COPA (human), sequence (P53621 whole entry): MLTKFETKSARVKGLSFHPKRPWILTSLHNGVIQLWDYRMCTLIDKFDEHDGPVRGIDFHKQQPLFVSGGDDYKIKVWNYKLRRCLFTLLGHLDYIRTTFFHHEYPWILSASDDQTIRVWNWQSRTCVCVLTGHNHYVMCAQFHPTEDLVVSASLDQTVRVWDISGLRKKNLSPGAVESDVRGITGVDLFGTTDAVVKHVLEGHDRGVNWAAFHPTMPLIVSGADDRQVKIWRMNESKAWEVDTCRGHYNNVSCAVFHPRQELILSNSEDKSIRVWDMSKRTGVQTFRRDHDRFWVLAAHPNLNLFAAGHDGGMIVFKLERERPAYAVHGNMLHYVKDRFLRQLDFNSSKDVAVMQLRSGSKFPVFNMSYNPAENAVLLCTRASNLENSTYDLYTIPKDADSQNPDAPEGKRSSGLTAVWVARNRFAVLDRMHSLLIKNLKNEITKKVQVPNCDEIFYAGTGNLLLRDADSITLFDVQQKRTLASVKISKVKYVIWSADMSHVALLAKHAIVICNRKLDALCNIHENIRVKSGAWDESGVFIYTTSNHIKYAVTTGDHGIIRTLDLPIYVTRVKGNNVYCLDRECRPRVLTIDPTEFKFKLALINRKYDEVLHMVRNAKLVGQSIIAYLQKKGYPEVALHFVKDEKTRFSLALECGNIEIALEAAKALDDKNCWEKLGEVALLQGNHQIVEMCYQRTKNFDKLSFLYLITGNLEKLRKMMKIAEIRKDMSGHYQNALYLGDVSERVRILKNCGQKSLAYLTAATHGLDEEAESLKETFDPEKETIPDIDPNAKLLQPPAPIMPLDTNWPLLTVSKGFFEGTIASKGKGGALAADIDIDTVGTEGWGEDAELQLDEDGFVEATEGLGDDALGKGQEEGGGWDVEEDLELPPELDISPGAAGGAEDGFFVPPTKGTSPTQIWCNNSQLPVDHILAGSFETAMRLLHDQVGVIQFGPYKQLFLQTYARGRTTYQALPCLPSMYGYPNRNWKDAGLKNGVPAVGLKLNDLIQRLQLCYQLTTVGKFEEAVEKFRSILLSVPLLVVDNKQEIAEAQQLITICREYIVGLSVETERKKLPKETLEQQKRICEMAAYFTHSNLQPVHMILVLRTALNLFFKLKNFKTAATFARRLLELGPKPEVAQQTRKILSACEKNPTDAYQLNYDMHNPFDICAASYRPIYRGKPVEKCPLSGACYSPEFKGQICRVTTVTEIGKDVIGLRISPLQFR
DDOST (human), sequence (P39656 43-456 limits assumed): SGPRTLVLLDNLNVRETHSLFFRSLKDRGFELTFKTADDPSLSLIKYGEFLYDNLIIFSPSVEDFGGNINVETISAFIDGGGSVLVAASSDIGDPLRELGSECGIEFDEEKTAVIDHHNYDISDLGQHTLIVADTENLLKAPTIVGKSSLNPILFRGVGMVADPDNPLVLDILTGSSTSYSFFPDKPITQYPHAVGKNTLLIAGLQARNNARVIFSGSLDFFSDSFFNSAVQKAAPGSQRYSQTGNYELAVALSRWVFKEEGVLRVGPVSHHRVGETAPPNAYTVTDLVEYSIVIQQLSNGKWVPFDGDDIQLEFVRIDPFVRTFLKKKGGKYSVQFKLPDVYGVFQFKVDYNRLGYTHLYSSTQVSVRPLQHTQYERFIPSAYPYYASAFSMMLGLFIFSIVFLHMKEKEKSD
DDB1 (human), sequence (Q16531 2-1140 limits assumed): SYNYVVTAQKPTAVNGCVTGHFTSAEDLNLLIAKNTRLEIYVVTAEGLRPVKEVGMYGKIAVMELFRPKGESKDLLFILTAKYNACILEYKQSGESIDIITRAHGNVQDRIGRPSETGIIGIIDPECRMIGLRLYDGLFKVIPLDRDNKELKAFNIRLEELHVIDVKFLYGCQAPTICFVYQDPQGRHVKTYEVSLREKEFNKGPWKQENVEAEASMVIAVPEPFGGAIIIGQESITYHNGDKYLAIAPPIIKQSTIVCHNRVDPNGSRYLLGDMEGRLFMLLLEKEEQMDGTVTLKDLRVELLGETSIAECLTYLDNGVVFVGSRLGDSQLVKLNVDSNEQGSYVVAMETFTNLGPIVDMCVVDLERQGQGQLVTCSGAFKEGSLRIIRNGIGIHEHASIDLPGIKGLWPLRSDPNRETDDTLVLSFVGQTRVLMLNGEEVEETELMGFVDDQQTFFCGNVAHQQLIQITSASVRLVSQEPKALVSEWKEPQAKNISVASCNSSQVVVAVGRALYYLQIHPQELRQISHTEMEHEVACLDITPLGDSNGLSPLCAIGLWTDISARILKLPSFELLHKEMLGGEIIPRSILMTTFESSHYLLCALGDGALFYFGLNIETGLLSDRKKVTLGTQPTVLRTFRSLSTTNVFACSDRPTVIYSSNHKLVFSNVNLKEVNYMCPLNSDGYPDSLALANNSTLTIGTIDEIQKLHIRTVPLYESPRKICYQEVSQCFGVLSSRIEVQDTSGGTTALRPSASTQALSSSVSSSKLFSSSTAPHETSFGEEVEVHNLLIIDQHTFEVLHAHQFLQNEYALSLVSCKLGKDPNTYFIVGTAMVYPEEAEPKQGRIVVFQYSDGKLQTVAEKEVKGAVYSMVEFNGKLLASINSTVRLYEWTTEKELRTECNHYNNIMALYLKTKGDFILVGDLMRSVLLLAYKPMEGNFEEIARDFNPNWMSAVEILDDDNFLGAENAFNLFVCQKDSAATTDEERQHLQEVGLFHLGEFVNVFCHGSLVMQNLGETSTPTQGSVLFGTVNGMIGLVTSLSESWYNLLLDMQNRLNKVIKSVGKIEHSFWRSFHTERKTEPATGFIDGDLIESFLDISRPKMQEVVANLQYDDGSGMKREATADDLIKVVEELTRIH

- mean fold [1]: 19.3 fold
- mean fold [2]: 18.5 fold
- mean fold [3]: 32.3 fold
- mean fold [4]: 17.1 fold
- mean fold [5]: 21.4 fold
- mean fold [6]: 25.2 fold
- mean fold [7]: 10.8 fold
- mean fold [8]: 12.1 fold
- mean fold [9]: 15.1 fold
- mean fold [10]: 25.3 fold
Substance: Flag-MFF1 (from UniProt Q9GZY8 1-342)
